Test results as given in article PMC7718890, “High-throughput screening to discover inhibitors of the CarD·RNA polymerase protein–protein interaction in Mycobacterium tuberculosis” (Scientific Reports, 2020).

Experiments:
[1] = molecular target: CarD T8C labelled with BODIPY-FL (Mycobacterium tuberculosis) (UniProt P9WJG3); experiment: fluorescence polarisation
[2] = molecular target: Mycobacterium tuberculosis RNA polymerase, wild type (Mycobacterium tuberculosis) (UniProt P9WGY9); experiment: fluorescence polarisation

Substance: Mycobacterium tuberculosis RNA polymerase, wild type (from UniProt P9WGY9 8-1140) (complex)
- Kd [1]: 65 nM

Substance: Wild-type MTB CarD, unlabeled (from UniProt P9WJG3 1-162) (natural protein)
- Ki [2]: 8 nM
